One test deals with DsRmChΔ5 (UniProt Q9U6Y8). As to the kind of experiment: AUC; sedimentation velocity, 40,000 RPM overnight, PBS pH 7.4, sample diluted to A575 of 0.5, c(m) distribution in Sedfit.
Test [1] concerns the target DsRmCh (UniProt Q9U6Y8). The experiment in a line: SEC; Superdex 75 10/300, 100 μl of purified protein, absorbance at 575 nm. (Size exclusion chromatography separates by hydrodynamic size, large species first.)
The target in test [2] is DsRmCh (UniProt Q9U6Y8). The experiment in a line: AUC; sedimentation velocity, 40,000 RPM overnight, PBS pH 7.4, sample diluted to A575 of 0.5, c(m) distribution in Sedfit.

The values below come from paper PMC4468108.

Turning to DsRmChΔ5 (from UniProt Q9U6Y8 1-220), in the test with DsRmChΔ5, the stoichiometry N (as a rule, a count of units in the complex or per binding partner) stood at 4.

As to DsRmCh (from UniProt Q9U6Y8 1-225), the stoichiometry N with DsRmCh [1] and with DsRmCh [2] was 4 in each case.
